Measured values reported in paper PMC5626683.

Molecular target: GST-MreC from Helicobacter pylori (residues L37-N248), wild type (H. pylori) (UniProt B5Z916)
Test: ITC; iTC200, 20 °C; PBP2 (3 μL of 160.4 μM) titrated into the cell with GST-tagged MreC (25 μM)

Kd: 400 nM
Substance: PBP2 from Helicobacter pylori (residues L38-L588, lacking the TM helix), His6-tagged (domain or fragment)
